Patent US6822073B2, “Modular peptide-based reagent” (Kimberly-Clark Worldwide, Inc., priority 2001, dated 2004)

How the values were obtained:
[1] = target: T1, bovine pancreatic trypsin (Bos taurus, UniProt P00760); experiment: Isothermal titration calorimetry (ITC) of binding to bovine pancreatic trypsin; conditions: for Binding to trypsin by ITC (in words): all experimental conditions, FIGS. 6 and 7; for Stoichiometry / Ka (association constant) / ΔH / ΔS: ITC
T1 sequence (P00760 24-246): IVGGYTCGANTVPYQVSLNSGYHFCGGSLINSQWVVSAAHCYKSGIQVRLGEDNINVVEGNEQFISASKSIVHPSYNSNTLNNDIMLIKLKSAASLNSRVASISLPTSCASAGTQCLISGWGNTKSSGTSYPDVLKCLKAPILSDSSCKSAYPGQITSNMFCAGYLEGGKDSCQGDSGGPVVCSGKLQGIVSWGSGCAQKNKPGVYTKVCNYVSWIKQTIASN
Experimental: Isothermal titration calorimetry (ITC) was performed with a VP-ITC instrument from MicroCal, inc. Titrations were carried out by injecting 5 μL of an inhibitor solution (at concentration ranges from 0.5 mM to 2.0 mM) into the 1.4 mL stirred reaction cell. APP and APP derivatives ranged in concentration from 50 to 80 μM in the cell. […] Titrations were conducted between 20° C. and 40° C. Typical experimental conditions for the titrations were a 10 second injection period followed by a 240 second delay between injections for a total of 40 injections. Blank titrations of inhibitor into buffer were performed in order to correct for heats of dilution and mixing.
The independent set of multiple binding sites is the most common model for binding experiment evaluations. The analytical solution for the total heat is determined by (Freire et al., 1990): [formula]
where Q is the total heat, V is the cell volume, ΔH is the enthalpy, M is the macromolecule concentration (the binding partner in the cell), n is the binding stoichiometry, L is the ligand concentration (the binding partner in the syringe), and K is the association constant. Data were fit to this model using Origin version 5 (MicroCal, Inc.).
The association constant is related to the van't Hoff enthalpy according to the following relationship: [formula]
The free energy of binding is related to the binding enthalpy by:
or with the incorporation of heat capacity data according to the Gibbs-Helmholtz equation: [formula]
where ΔG is the Gibbs free energy of binding, T0 is the reference temperature, and ΔCp is the heat capacity. The value of ΔCp is calculated from determining the calorimetric enthalpy at two different temperatures: [formula]
By measuring the apparent enthalpy of binding in two different buffers of known enthalpy of ionization, it is possible to measure the net number of protons transferred during the binding events:
where ΔHcor is the actual heat of binding at the pH measured. The sign indicates the direction of proton transfer.

[2] = Chemical denaturation: unfolding in urea by intrinsic tryptophan fluorescence; assay type: physicochemical; conditions: for m1/2 value of unfolding: 20 μM protein; for m1/2 value of unfolding / Native free energy (ΔG in absence of denaturant): room temperature; for Native free energy (ΔG in absence of denaturant): extrapolated to zero urea
Experimental: Stability measurements of the protein were performed by measuring protein unfolding in the presence of urea via intrinsic tryptophan fluorescence (Lakowicz, 1983) in a Shimadzu RF5301 fluorometer. The excitation and emission wavelengths were 295 nm and 340 nm respectively. Both excitation and emission monochrometer slits were set at 1.5 nm. Protein (20 μM) was mixed with increasing amounts of urea (in the concentration range of zero to 6.8 M), and the samples were incubated at room temperature for ten hours to ensure that unfolding equilibrium had been achieved. Relative fluorescence was converted into free energy values according to the relation (Pace et al., 1989): [formula]
where yf and yu are the relative fluorescence values for fully folded and fully unfolded DST respectively, yi is the relative fluorescence of the unfolding intermediates, T is the absolute temperature, and R is the gas constant. Linear regression and extrapolation of the relationship ΔG versus [urea] was employed to determine the free energy value in the absence of denaturant (ΔGH2O). Similarly, the fraction unfolded protein (Fu) was calculated from the fluorescence data according to the relation (Pace et al., 1989): [formula]

[3] = target: T1, bovine pancreatic trypsin; experiment: Surface plasmon resonance (BiaCore-X), trypsin flowed over immobilized peptide; assay type: binding; conditions: peptide coupled to CM-5 chip by thiol, trypsin 1 to 100 nM in PBS, FIG. 12
Experimental: The BiaCore, Inc. BiaCore-X surface plasmon resonance (SPR) device was utilized to measure the interaction between bovine pancreatic trypsin and SAP-1 or SAP-2. For these experiments a carboxymethyl dextran sensor chip (CM-5) was activated with 50 mM N-hydroxysuccinimide, 0.2 M N-ethyl-N′-(dimethylaminopropyl)-carbodiimide at a flow rate of 10 μL per minute for ten minutes. The thiol coupling agent PDEA (2-(2-pyridinyldithio)ethaneamine hydrochloride) at a concentration of 80 mM was passed over the activated surface at a flow rate of 10 μL per minute for five minutes. SAP-1 or SAP-2 at a concentration of 50 ng/μL was coupled to the activated surface at a flow rate of 10 μL per minute for ten minutes. The final surface was inactivated by flowing 50 mM 1-cysteine, 1 M NaCl at a rate of 10 μL per minute for five minutes over the sensor surface. Buffer was switched to phosphate buffered saline (PBS) and bovine pancreatic trypsin was flowed over the sensor surface at a rate of 20 μL per minute, and at concentrations that ranged from 1 to 100 nM.
For this reaction of the type, A+B⇄AB, where A is the free flowing ligand and B is the immobilized ligand, the change in the SPR signal (R) is proportional to formation (for the association phase) or to the dissociation (for the dissociation phase) of the complex AB.
for the association phase. Rmax is the measured response if all of the binding sites in the bound species were occupied, c is the ligand concentration, and Rb is the shift in the baseline signal upon ligand injection. The dissociation phase is evaluated by:
where R0 is the SPR signal at the start of dissociation. A FFT routine separately smoothed the association and dissociation portions of the binding isotherm. Final kinetic analysis (O'Shannessy et al., 1993) was performed using Origin from Microcal, Inc.

For “CPSQPTYPGDPGPVEDLIRFYDNLQQWLNCVTAAC [SAP]”, which “Binding to trypsin by ITC (in words)” value [1] is on record?
The value was “no detectable binding”.

And the “Binding to trypsin by ITC (in words), FIG. 6 titration” value ([1]; peptide 2 mM, trypsin 20 μM, 20 mM cacodylate pH 7.0, 20 mM NaCl, 30° C.)?
Its value is “No binding is evident”.

What about the “m1/2 value of unfolding” value [2] of the same sequence?
The value was 2.5 M urea.

What about the “Dimerization seen in the unfolding curve (in words)” value ([2]; FIG. 9) of the same sequence?
The value was “no dimerization phenomenon”.

And the “Native free energy (ΔG in absence of denaturant)” value [2]?
The value was -3.1 kcal/mol.

For “CPSQPTYPGDPPYRIRFGPVEDLIRFYDNLQQWLN CVTAAC (CPSQPTYPGDPPYRIRFGPVEDLIRFYDNLQQWLNCVTAAC; A peptide-based reagent that combines the SEQ ID NO15 interactive domain with the SEQ ID NO11 peptide backbone.) [SAP-1]”, which Stoichiometry ([1]; 293 K (20° C.), 20 mM cacodylate pH 7.0, 20 mM NaCl, FIG. 7) is on record?
Its Stoichiometry is 0.975 +/− 0.02.

And the “Ka (association constant)” value ([1]; 293 K, FIG. 7)?
The value was 1.65e+06 ± 45000 M⁻¹.

And the ΔH ([1]; 293 K, FIG. 7)?
The ΔH was -26.1 ± 1.45 kcal/mol.

What about the ΔS ([1]; 293 K, FIG. 7) of the same sequence?
The ΔS was −11.6 +/− 2.2 cal mol^−1 K^−1.

What about the “Ka (association constant)” value ([1]; 303 K) of the same sequence?
The value was 2.4e+06 ± 37000 M⁻¹.

What about the ΔH ([1]; 303 K) of the same sequence?
Its ΔH is -15.4 ± 2.05 kcal/mol.

And the ΔS ([1]; 303 K)?
The ΔS was −21.1 +/− 1.8 cal mol^−1 K^−1.

And the Stoichiometry ([1]; higher temperature, 303 K)?
Its Stoichiometry is 0.99 +/− 0.03.

And the “Binding to trypsin by ITC (in words)” value [1]?
The value was “remarkable binding specificity for trypsin”.

And the “ΔCp (heat capacity of binding)” value ([1]; from calorimetric enthalpy at 293 K and 303 K)?
Its value is −0.51 kcal/mol K.

And the “Kinetic rate constant ka (association)” value [3]?
The value was 1.3×10^5.

And the “Kinetic rate constant kd (dissociation)” value [3]?
Its value is 1.7×10^−2.

What about the “Stabilization of the native state relative to SAP” value [2] of the same sequence?
Its value is 2.0 kcal/mol.

What about the “m1/2 value of unfolding” value [2] of the same sequence?
The value was 4.0 M urea.

What about the “Native free energy (ΔG in absence of denaturant)” value [2] of the same sequence?
Its value is -5.1 kcal/mol.

Which results are given for “CPSQPTYPGDPYKLKY GPVEDLIRFYDNLQQWLNCVTAAC (CPSQPTYPGDPYKLKYGPVEDLIRFYDNLQQWLNCVTAAC; A peptide-based reagent that combines the SEQ ID NO18 interactive domain with the SEQ ID NO11 peptide backbone.) [SAP-2, SAP backbone with library program-selected YKLKY insert]”?
Stoichiometry ([1]; 25° C., 20 mM cacodylate pH 7.0, FIG. 8): 0.995 +/− 0.06; Ka (association constant) ([1]; 25° C., FIG. 8): 640000 ± 5300 M⁻¹; ΔH ([1]; 25° C., FIG. 8): -31.2 ± 2.30 kcal/mol; ΔS ([1]; 25° C., FIG. 8): −16.2 +/− 1.22 cal mol^−1 K^−1; Binding affinity compared with the peptide having SEQ ID NO:21 (in words) ([1]; bovine pancreatic trypsin): slightly lower binding affinity; Kinetic rate constant ka (association) [3]: 8.2×10^4; Kinetic rate constant kd (dissociation) [3]: 6.9×10^−2; Stabilization of the native state relative to SAP [2]: 2.1 kcal/mol; Stabilization of the native state relative to SAP-1 [2]: 0.1 kcal/mol; m1/2 value of unfolding [2]: 4.05 M urea
